Measurements: US20130243775A1

Target: interleukin-4 receptor (IL-4R) (UniProt P24394)
Assay: cell-based or functional assay

UniProt P24394, sequence (P24394 26-825 limits assumed): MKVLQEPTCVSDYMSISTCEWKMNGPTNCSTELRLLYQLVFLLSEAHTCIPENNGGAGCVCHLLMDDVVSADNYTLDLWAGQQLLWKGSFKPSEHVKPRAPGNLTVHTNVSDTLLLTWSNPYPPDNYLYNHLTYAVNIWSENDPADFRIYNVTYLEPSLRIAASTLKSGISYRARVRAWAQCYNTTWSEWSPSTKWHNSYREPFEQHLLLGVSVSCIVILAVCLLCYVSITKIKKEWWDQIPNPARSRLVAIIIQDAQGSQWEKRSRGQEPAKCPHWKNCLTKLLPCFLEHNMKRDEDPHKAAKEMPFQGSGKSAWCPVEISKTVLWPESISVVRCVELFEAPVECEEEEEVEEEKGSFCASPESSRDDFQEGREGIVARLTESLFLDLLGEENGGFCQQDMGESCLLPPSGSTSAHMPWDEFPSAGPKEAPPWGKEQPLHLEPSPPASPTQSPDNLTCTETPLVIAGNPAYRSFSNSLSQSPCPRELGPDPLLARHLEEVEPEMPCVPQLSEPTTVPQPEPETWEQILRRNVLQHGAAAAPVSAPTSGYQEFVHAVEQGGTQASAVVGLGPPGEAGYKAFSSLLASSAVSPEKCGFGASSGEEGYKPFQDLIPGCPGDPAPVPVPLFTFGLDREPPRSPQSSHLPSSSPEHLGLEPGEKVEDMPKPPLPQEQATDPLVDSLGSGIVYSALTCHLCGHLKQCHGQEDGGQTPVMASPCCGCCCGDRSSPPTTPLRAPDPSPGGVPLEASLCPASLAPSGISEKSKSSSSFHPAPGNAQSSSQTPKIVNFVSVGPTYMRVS

B1: anti-IL-4R:anti-CD63 conjugate (streptavidin-conjugated anti-IL-4R antibody combined 1:1 with biotinylated anti-CD63 antibody MEM-259) (protein, part only; not given: anti-CD63 antibody, constant regions, part only)
VH: EVQLVESGGGVVQPGRSLRLSCVASGFTFSDYGMHWVRQAPGKGLEWVAVIWYDGSIKYFRDSVKGRFTISRDNSKNTLYLQMNSLRVEDTAHYYCAKESSSWYFYHGLDVWGQGTMVTVSS
VL: EIVMTQSPLSLPVSPGEPASISCRSNQSLLHSNGNNYLAWYLQKPGQSPHLLIYLGSNRASGVPDRFSGSGSGTDFTLKISRVEAGDVGTYFCMQSLQAPPFTFGPGTKVEIKR
modifications: antibody is streptavidin-conjugated (site not stated)
  attenuation of IL-4R activity relative to the control constructs (STAT6-luciferase reporter): > 10%
